Data on 24 sequences can be found in a protein production outcome set (Wang et al. 2014).

This series can be described thus: label from the status in PepcDB records.
On to “MGLGRQSLNIMTFSGQELTAIIKMAKSMVMADGKIKPAEIAVMTREFMRFGILQDQVDLLLKASDSIEASQAVALIARMDEERKKYVASYLGVIMASDGDIDDNELALWTLISTLCGLPTMTVMEAINNMKNL”, for which the protein production result is listed as “not failed”.
The entry for “MGLKSNSAILPKALFCWSGGKDSAYCLHKVLLEKQFDVCYLLTTVNDTFKRISMHGVRETLLDKQTESIGIPCIKIRIKEGTNSEYEQLMETTLLKAKEEGITHVIFGDIFLEDLRTYRENNLDKVGLQAVFPLWKMDTGILIRDFIRKKFKTILCCINDGYLDETWAGREIDAVFIAQLPGHVDPCGENGEYHTFCYDGPLFQKAITVSTGEKIYKPLDYSLDDVCQSTVPTKGFWYCDLIPD” is “failed”; for “MGLSRVRAVFFDLDNTLIDTAGASRRGMLEVIKLLQSKYHYKEEAEIICDKVQVKLSKECFHPYSTCITDVRTSHWEEAIQETKGGADNRKLAEECYFLWKSTRLQHMILADDVKAMLTELRKEVRLLLLTNGDRQTQREKIEACACQSYFDAIVIGGEQKEEKPAPSIFYHCCDLLGVQPGDCVMVGDTLETDIQGGLNAGLKATVWINKSGRVPLTSSPMPHYMVSSVLELPALLQSIDCKVSMSV” it is “not failed”.
The entry for “MGLSVGIVGLPNVGKSSTFNALTKTQNAQSANYPFCTIEPNKAIVNVPDRRLDALAQIVKPERILHSVVEFVDIAGLIKGASKGEGLGNQFLANIKECEVILQVVRCFEDDNITHVNDKIDPLNDIETIELELILADIAALDKRIDRLQKALKSSKDAKNLLECALSLKTHLEELKPAKTFPLNTSEAFLELDKELRFLSHKKMIYVANVGEEDLNALNEHAKKVKNHAKEQNSEFVALCAKLEEEMVSMSGDEVKEFLQSLGVEESGLEKTIRLSFKELGLINYFTAGVKEVRSWTIKKGSSAPVAAGVIHKDFEKGFIRAETISYDDFIAYKGEAGAKEKGALRIEGKDYIVQDGDVLHFRFNI” is “failed”; for “MGMKDVFKRYLVFVIGLYFLAAGIVLIVRSALGTTPISSVNYVLSLNSPLSLGTCTFLINMLLILGQFWVIRKNKTRQDTIEILLQLPFSFIFSAFIDFNMALTSNLHPDNYGMSIALLLTGCMIQSIGVVLELKPKVAMMSAEAFVKYASRRYNKEFGKFKVCFDVTLVTLAVILSLLLSQCIEGVREGSLIAACITGYIVSFLNQKIMTRKTLYKLLPVLK” it is “failed”.
Consider “MGMVFGKIAVETPKYTVTKSGDGYEIREYPPAVAAEVTYDASEFKGDKDGGFQLLAKYIGVFGKPENEKPEKIAMTAPVITKEGEKIAMTAPVITKESEKIEMTSPVVTKEGGGEGRKKLVTMQFLLPSMYKKAEEAPRPTDERVVIKEEGGRKYGVIKFSGIASESVVSEKVKKLSSHLEKDGFKITGDFVLARYNPPWTLPPFRTNEVMIPVE”, for which the protein production entry is recorded as “failed”.
Take “MGNCCVSSGTTDRENENVSDKNTTIVEEETVVKEVLSETTLFTPSSSFRTSTFKDPVKTKIREDEEKKPGFLKMASDPVLIRPGSVDPEEGSEVSEICSLSLSESVSSTVVMNGYDEEHVMMKQRKSQRSPAKTRTQVTGNNYPTRRTDQSPRKRNNGTCNGARYGSGVRDPGERSGRRSRSPATNRSVMDSNQSSRVGGAKTRKNNQSPGRVRLDPAKNGLDQQQHQNYGYTTEELLENPLVSLECFIFL”: the protein production entry is “failed”.
Consider “MGNCVFKGNGGSRKLYDKDDSLIKVVTPNGGVMELHPPIFAEFITNEFPGHVIHDSLSLRHSSPPLLHGEELFPGNIYYLLPLSSSAAATAQLDSSDQLSTPYRMSFGKTPIMAALSGGGCGVWKVRLVISPEQLAEILAEDVETEALVESVRTVAKCGGYGCGGGVHSRANSDQLSVTSSFKGKLW”, for which the protein production entry is “not failed”.
The entry for “MGNEEEKMNADIFSYEGEGIQCVYDNKNWVMCIKNWKPNNDIENIRYLEVHHATDEQFVLLKGKAVLLAAVKADGACRIDVIPMEPYKVYNIPQGIWFNTITQKDTKLVYVQDAATTAENSEYCDMTQEELNEVKEKASACLD” is “failed”.
For the sequence “MGNFLRRSCAVHPASGDGGRGRHVDEPPQQRPSSVRIKVRMRRDQLEELLYLARRGDQSDDGGKIGFLILKECMEGRLPASVLGSGGDVRSQRRGSYMVYRRLGSITEE”, the protein production entry is listed as “failed”.
As for “MGNFTFEEMNLMCIYNTGSRTGLIDSLREMRGELSPEETELRELTDSALTKLCAMTDEDFAQLELYPDFDQLEHHHHHH”, the entry is “not failed”; as for “MGNKLVNSLSKITTSSKEVTSDILVMNFTIVNAFLIGNKTQWVLVDTALENSADFILKAAEKRFGKGSVPKAIILTHGHFDHVGSVIKLSKLWSVPVYIHELEMPYVTGKKDYPLADPTVDEGMVAKISQTFPHTSIDISSNVSPLPSDSSIPYMPDWKWIHTPGHTDGHISLFREKDHVLIVGDAFCTTKQESLLSVITHHEEISGPPKYLTTDWAKAKNSIICLKNLKPLIAIPSHGEELSGEELTKHLELLINNFDEIAKPAEGQFVTNK”, “failed”; as for “MGNLKAEYLEQTYIDLAPLKDAEDCRTYLTRSQVDGSLAVRKEICALQYPLYQQLIDFSHPSLARVLETYTKDGRYFVLEEYVSGSTIGSYLKRGYHFQEHEILSFISQLCSALSFLHAHNIIHRDVTPENLLISTDNVLKLIDFGISRSKKEGQSQDTTILGTVGYAAPEQFGFGQTDERTDIYATGVLLNVLLTGSLPKDDLPFDPRYRQIVLKCTSISPADRYSSVSELKSQIMAIKPTRIYQAEIVEPSGKAPRKDSLIRRFFRHVPGFRTGNPGKMIVAIIGYFLMLLFVVVNGTRPLEPGDIRSEYWTINYFFVGVWAAYVNLGNYCGHIEAYDKVGPLTRLLLRTAVALAVFLTTGLLLYFENYCLK”, “failed”.
In the case of “MGNNGRDILAGLSVAGLMLPEAIAYSGIAGVPPQHALYAAMAGCLVYALLGQSRFAIISPTSSSAAILAAMLAALVPQPGQKMLLVAVAVFLVGLFFLAAGTLRLGALSSIISRPVLRGFAFGLAILISLKQFPAIFGMPQAGAGTFEAILQILTNPGQWNGFSLSIGIAALILLLFARRYPQIPGSLIIIALAIPISVMFDLQQRGVDVVGPIDLSGIWGSVTTLSLDELAHVARFAPPLVLILFAESWGTIRGLSLRHGEDVDANRELKTLGIANVASAALQGMPVGAGFSAGAASEAANPRTRMASAIAAIGLAGFTFAAADWFAYIPHAALSAIIIVALLHALDPSPFLRLWRLRQDLVLALAATAGVLFLGVLNGMLAAIVLSFAVFLQRLSSPRIVMLGRLGASHDFVDVKRHPDAAEPAGMLVLRPAQPLFFGNAEPTFAEITRRILASPDINAVIISLEETFELDTTALEALLEFDASLRGRNIGIRYAPMHDAVRDVVAAGGGDDLLRRANYSVDDAVAAMDGLKEEK”, the protein production entry is “failed”.
As for “MGNNNSTKESTHDNHSDSSTHEEMDHSGSADVPEGLQESKNPKYKVGSQVIINTSHMKGMKGAEATVTGAYDTTAYVVSYTPTNGGQRVDHHKWVIQEEIKDAGDKTLQPGDQVILEASHMKGMKGATAEIDSAEKTTVYMVDYTSTTSGEKVKNHKWVTEDELSAKLEHHHHHH”, the entry is “not failed”; as for “MGNQDTIIETDNGNSDYETPQPTSFPLEHNHFGVMEDGYIKIYEYNESRNEVKLKKEYADDELELEHHHHHH”, “not failed”.
The entry for “MGNSLHQIKCCTSFIHCQNAAVDAPSIAKTLADYLYPAFFHQDLPAPLKISVTGCPNQCGGGVEADIGISGYFATVPRVDDAGLMAANIDFGHLISGCPVGAIRPRQVEGGTTVVINAERCIRCTSCIQVAPEGIKPGPERFVAIAVGGHGGNNRRGPEMAAVVFSRVPARPLDYAAICERVQRIIACWRDRGKRGERLAGFLERLEHHHHHH” is “failed”.
The entry for “MGNSQRQSEEIEAMAAIYGEEWCVIDENAKIFCIRVTDFMDDPKWTLCLQVMLPSEYPGTAPPSYQLNAPWLKGQERADLSNSLEEIYVHNMGESILYQWVEKIRDALIQKSQITEP” is “not failed”; for “MGNTIRALVAFIPADRCQNYVVRDLREMPLDKMVDLSGSQLRRFPLHVCSFRELVKLYLSDNHLNSLPPELGQLQNLQILALDFNNFKALPQVVCTLKQLCILYLGNNKLCDLPSELSLLQNLRTLWIEANCLTQLPDVVCELSLLKTLHAGSNALRLLPGQLRRLQELRTIWLSGNRLTDFPTVLLHMPFLEVIDVDWNSIRYFPSLAHLSSLKLVIYDHNPCRNAPKVAKGVRRVGRWAEETPEPDPRKARRYALVREESQELQAPVPLLPPTNS” it is “failed”; for “MGNTTSDRVSGERHGAKAARSEGAGGHAPGKEHKIMVGSTDDPSVFSLPDSKLPGDKEFVSWQQDLEDSVKPTQQARPTVIRWSEGGKEVFISGSFNNWSTKIPLIKSHNDFVAILDLPEGEHQYKFFVDGQWVHDPSEPVVTSQLGTINNLIHVKKSDFEVFDALKLDSMESSETSCRDLSSSPPGPYGQEMYAFRSEERFKSPPILPPHLLQVILNKDTNISCDPALLPEPNHVMLNHLYALSIKDSVMVLSATHRYKKKYVTTLLYKPI” it is “not failed”.
As for “MGNVLFLVSLSLIWVMLLYHMFLMQGGFRHYMTFERNIPKWKENVKDLPKVSVLIPAHNEEVVIRQTLKAMVNLYYPKDRLEIIVVNDNSSDRTGDIVDEFSTQYGFIKMVVTKPPHAGKGKSSALNCGFAESNGDVICVYDADNTPEKMAVYYLVLGLMNDQKAGAVVGKFRVINAAKTLLTKFINIETICFQWMAQGGRWKWFKIATIPGTNFAIRRSIIEQLGGWDDKALAEDTELTIRVYNLGYHIRFFPAAVTWEQEPETWKVWWRQRTRWARGNQYVVLKFLAQFFKLKRKRIIFDLFYFFFTYFLFFFGVIMSNAIFVINLFYNLHLSFGFLSIILWVLAFFLFMTKVMITLSIEKTEMNRQNFFIVFLMYFTYSQAWIVLVIYSLFVEIKHRLFKQHGTKQNDTIKRKAGDFFEIYHHMSGKLLADHGDGTSGCSQRRYSRRLDPGGKQPGTSQAASAHKRSLDFIRGKRQRRADVSNTGGRLLYPSAAYT”, the protein production result is recorded as “failed”.
As for “MGPFLMRILALGLVAGAALAQGVQAWLERGERLLSEGAYAEAVAAFEEVLRQDYGQFQAHLGLGVALVRLGRLEEARFAFDQMTRVFPDRYEGHFNLGQVYLRMGEAGKAAEAFAKAAAIAPREEAYLAWSGALLQEGKAREAAAVLERGLSPERSPAYRLALAQALYAAGEREAAVPHLYAALNREPGRAEAWDLLARVLAEVGLADRARREVERGLEAVQDPKGKALLLLRKGTLVEDPEPLWREALALDPDLWQAAYLLGRRRLEAGDLKEGLRWLQEAYAKGQDPEVALALAAAYLKAKDYANAYRYAKEAGPAGAFLQAQAAQGLGRRQEALKLLEGIASPQALALRGSLLLEEGQGEEAVAALQAAYEATRDPQVGVNLGAALVLVKRFGQAELVLREVLAKDPSSAAAWYNLGLALRGLGRQAEADRALRQAAALGSREARALLGR”, the protein production entry is “failed”.
For the sequence “MGPLLVWHRGDLRLHDHPALLEALARGPVVGLVVLDPNNLKTTPRRRAWFLENVRALREAYRARGGALWVLEGLPWEKVPEAARRLKAKAVYALTSHTPYGRYRDGRVREALPVPLHLLPAPHLLPPDLPRAYRVYTPFSRLYRGAAPPLPPPEALPKGPEEGEIPREDPGLPLPEPGEEAALAGLRAFLEAKLPRYAEERDRLDGEGGSRLSPYFALGVLSPRLAAWEAERRGGEGARKWVAELLWRDFSYHLLYHFPWMAERPLDPRFQAFPWQEDEALFQAWYEGKTGVPLVDAAMRELHATGFLSNRARMNAAQFAVKHLLLPWKRCEEAFRHLLLDGDRAVNLQGWQWAGGLGVDAAPYFRVFNPVLQGERHDPEGRWLKRWAPEYPSYAPKDPVVDLEEARRRYLRLARDLARG”, the protein production entry is on record as “not failed”.
The entry for “MGPVPEFSVIIPARNEAAYLPGTLRALERQTLAPAEVIVVDNASRDQTAQIARSWGAQVLSCPEGGVARARQLGLDTARSSWVATTDADSLPAPGWLAAYAQAALLAGGYPEVEAYEDVILGQNLARLGEIGYVPRALVETSARRLDRGVGPFLIQHLRNLTGHTRGLEHHHHHH” is “failed”.
